Changes are numbered by the printed parent chain.
B1: 004S-D08 (Fab, V domains shown)
VH: QVQLVQSGAEVKKPGSSVKVSCKASGYTFTYRYLHWVRQAPGQGLEWMGGIIPIFGTANYAQKFQGRVTITADESTSTAYMELSSLRSEDTAVYYCATHDSSGYYSFDYWGQGTLVTVSS
VL: not shown
B2: 004S-C09 (Fab, V domains shown)
VH: QVQLVQSGAEVKKPGASVKVSCKASGYTFTNNFMHWVRQAPGQGLEWMGGFDPEDGETIYAQKFQGRVTMTRDTSTSTVYMELSSLRSEDTAVYYCARVGRGYSFDYWGQGTLVTVSS
VL: not shown
B3: 001S-B03 (Fab, V domains shown)
VH: QVQLQQWGAGLLKPSETLSLTCAVSGASFSGHYWTWIRQPPGKGLEWIGEIDHTGSTNYEPSLRSRVTISVDTSKNQFSLNLKSVTAADTAVYYCARGGQGGYDWGHYHGLDVWGQGTTVTVSS
VL: SYVLTQPPSVSVSPGQTASITCSGDKVGHKYASWYQQKPGQSPVLVIYEDSQRPSGIPVRFSGSNSGNTATLTISGTQAMDEADYYCQAWDSSTDVVFGGGTKLTVLG
notes: also called 1RC07
B4: 002S-B01 (VHH)
VHH: EVQLVESGGGLVQAGGSLRLSCTASGSTFSNYAMGWFRQAPGKEREFVAAISWGGGSTFYSGSVKGRFTISRDSAKNTVHLQMDSLIPEDTAVYYCAAGPIARWYRGDMDYWGKGTLVTVSS
B5: 002S-C02 (VHH)
VHH: B4 VHH with E1D, A14T, T23V, S27R, S30R, N31A, A49S, G54S, F59Y, S61A
B6: 002S-A04 (VHH)
VHH: AVQLVESGGGLVQAGGSLRLSCTASGRTFSSYAMGWFRQAPGKEREFVAAISWSGRSTYYADSVKGRFTISRDNAKNTVYLQMNSLKSEDTAAYYCAAGPIARWYRGDMDYWGKGTLVTVSS
B7: 001S-A04 mutant VHG10A (Fab, V domains shown)
VH: EVQLVQSGAEVKKPGASVKVSCKASGYTFTSYGISWVRQAPGQGLEWMGWISAYNGNTNYAQKLQGRVTMTTDTSTSTAYMELRSLRSDDTAVYYCASSKEKATYYYAMDVWGQGTTVTVSS
VL: QAVVLQEPSLSVSPGGTVTLTCGLSSGSVSTNYYPSWYQQTPGQAPRTLIYYTNTRSSDVPERFSGSIVGNKAALTITGAQPDDESVYFCLLYLGRGIWVFGGGTKLTVLG
B8: 001S-A04 mutant VLG5A (Fab, V domains shown)
VH: B7 VH with A108G
VL: B7 VL with G95A
B9: 001S-A04 mutant VLL1A (Fab, V domains shown)
VH: B7 VH with A108G
VL: B7 VL with L91A
B10: 001S-A04 mutant VHK2A (Fab, V domains shown)
VH: B7 VH with K100A, A108G
VL: B7 VL
B11: 001S-A04 mutant VLI8A (Fab, V domains shown)
VH: B7 VH with A108G
VL: B7 VL with I98A
B12: 001S-A04 mutant VLV10A (Fab, V domains shown)
VH: B7 VH with A108G
VL: B7 VL with V100A
B13: 001S-A04 mutant VHV13A (Fab, V domains shown)
VH: B7 VH with A108G, V111A
VL: B7 VL
B14: 001S-A04 mutant VLL4A (Fab, V domains shown)
VH: B7 VH with A108G
VL: B7 VL with L94A
B15: 001S-A04 mutant VLG7A (Fab, V domains shown)
VH: B7 VH with A108G
VL: B7 VL with G97A
B16: 001S-A04 mutant VLR6A (Fab, V domains shown)
VH: B7 VH with A108G
VL: B7 VL with R96A
B17: 001S-A04 mutant VHK4A (Fab, V domains shown)
VH: B7 VH with K102A, A108G
VL: B7 VL
B18: 001S-A04 mutant VLL2A (Fab, V domains shown)
VH: B7 VH with A108G
VL: B7 VL with L92A
B19: 001S-A04 mutant VLY3A (Fab, V domains shown)
VH: B7 VH with A108G
VL: B7 VL with Y93A
B20: 002S-D04 (VHH)
VHH: QVKLEESGGGLVQAGGSLRLSCAASGGTSSTYAMGWFRQAPGKEREFVAAINRSGGSTYYADSVKGRFTISRDNAKNTVYLQMNSLNPEDTAVYYCAAVFLSRNYEIQEYYRYQGQGTQVTVSS
B21: 002S-G02 (VHH)
VHH: AVQLVDSGGGLMQAGGSLRLSCAASGRTFGTWAMGWFRQAPGKEREFVAAISYNGFSTYYSDAVKGRFTISRDNAKNTMYLQMDSLIPEDTAVYYCAAGPIARWYRGDMDYWGKGTQVTVSS
B22: 002S-E02 (VHH)
VHH: QVQLVESGGGLVQPGGSLRLSCAASGFTFREYAMTWVRQSPGKRLEWVSGISRDGGRTSYSDSLKGRFTISRDNAKNTLYLQMNNLTPEDTAVYYCAPRVLVTAPSGGMDYWGKGTQVTVSS
B23: 001S-B01 (Fab, V domains shown)
VH: QLQLQESGSGLVKPSQTLSLTCAVSGGSISSGGYSWSWIRQPPGKGLEWIGSIYHSGSTYYNPSLKSRLTISVDTSKNQFSLKLSSVTAADTAVYYCARFYYDILTGYSYFDYWGQGTLVTVSS
VL: DIVMTHTPLSLSVTPGEPASISCRSSRSLLDTDDGNTYLDWYLQKPGQSPQLLIHTLSHRASGVPDRFSGSGSGTDFTLKISRVEAEDVGVYYCMQSIQLPWTFGQGTKVEIKR
B24: 002S-B04 (VHH)
VHH: DVQLVESGGGLVQAGGSLRLSCAASGRTFSSYAMGWFRQAPGKEREFVAAISWSGGSTYYADSVKGRFTISRDNAKNTVYLQMNSLKPEDTAVYYCAAGPNYSWFMPSSSRLIWGQGTLVTVSS
B25: 002S-F03 (VHH)
VHH: B6 VHH with S17P, T23A, F29S, R56G, N84D, L86P, K87I, S88P, A93V
B26: 005S-H05 (Fab, V domains shown)
VH: QVQLVQSGAEVKKPGASVKVSCKASGYTFTSYYMHWVRQAPGQGLEWMGRINPNSGGTNYAQKFQGRVTMTRDTSTSTVYMELSSLRSEDTAVYYCARVPDFWSGYLDYWGQGTLVTVSS
VL: DIQMTQSPSSLSASVGDRVTITCRASQGISSALAWYQQKPGKAPKLLIYAASSLQSGVPSRFSGSGSGTDFTLTISSLQPEDFATYYCQQTYSMPITFGQGTRLEIKR
B27: 003S-E07 (Fab, V domains shown)
VH: QVQLVQSGAEVKKPGSSVKVSCKASGYTFTNNFMHWVRQAPGQGLEWMGWINPNSGGTKYAQKFQGRVTITADESTSTAYMELSSLRSEDTAVYYCARSVGEVGATMLGIGVWYWFDPWGQGTLVTVSS
VL: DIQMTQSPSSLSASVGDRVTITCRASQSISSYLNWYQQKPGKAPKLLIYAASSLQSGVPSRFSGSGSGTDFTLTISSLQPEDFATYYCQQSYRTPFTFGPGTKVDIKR
notes: also called R2M9

Target: T1, Fzd1 cysteine rich domain (CRD), C-terminally biotinylated (human, UniProt Q9UP38 101-230)
Test: BLI
Procedure: (§1) Binding kinetics of antibody fragments to a variety of Fzd cysteine rich domain (CRD) protein targets (Fzd1, Fzd2, Fzd3, Fzd4, Fzd5, Fzd6, Fzd7, Fzd8, Fzd9 and/or Fzd10 CRDs) was determined by bio-layer interferometry (BLI) using Octet Red 96 (PALL ForteBio, Fremont, CA) instruments at 30° C., 1000 rpm with streptavidin (SA) biosensors. C-terminal biotinylated Fzd CRD recombinant protein was diluted to 20 nM in the running buffer (PBS, 0.05% Tween-20, 0.5% BSA, pH 7.2) and captured to the SA biosensor until coupling length reached 0.2 nm. Following capture of the Fzd CRD, the SA biosensor with captured biotinylated-Fzd CRD was dipped into wells containing the relevant antibody fragment at […] (0, 1.37, 4.12, 12.4, 37, 111.1, 333.3, 1000 nM) in running buffer, plus a well with only running buffer as a reference channel. […] was determined by global fitting, 1:1 binding model according to manufacturer recommended settings.
(§2) Table 1B provides clone IDs, the sequence identifier number of the antibody heavy chain fragment and/or light chain fragment, if present, for illustrative clones. In certain embodiments, the Fzd binding domain is an Fab or was derived from an Fab, so the heavy chain of Table 1B includes VH and CH1 sequence, but not CH2 or CH3 sequences. In certain embodiments, the Fzd binding domain is a VHH or sdAb® or was derived from a VHH or sdAb, so Table 1B includes the VHH domain. […] The Kd values were determined by BLI as described above. Blank entries denote that the binding to the specific Fzd receptor has not yet been determined. The entry of "n.b." indicates no binding.

Row | binding result | Binder
1 | no binding (tested: 1000 nM) | B1
2 | no binding (tested: 1000 nM) | B2

Target: T2, Fzd2 cysteine rich domain (CRD), C-terminally biotinylated (human, UniProt Q14332 24-155)
Test: BLI
Procedure: as §1, §2

Row | binding result | Binder
3 | no binding (tested: 1000 nM) | B1
4 | no binding (tested: 1000 nM) | B2

Target: T1, Fzd1 cysteine rich domain (CRD), …
Test: BLI; *=Kd <100 nM
Procedure: as §1, §2

Row | Kd | Binder
5 | < 100 nM | B3
6 | < 100 nM | B4
7 | < 100 nM | B5
8 | < 100 nM | B6

Target: T1, Fzd1 cysteine rich domain (CRD), …
Test: BLI; *=Kd <=100 nM
Procedure: as §1
One antibody fragment, clone 001S-A04, was selected for alanine-scanning mutagenesis of CDRs, and the respective Fzd1 binding affinities of the various mutants were determined by Octet BLI as described in Example 1.

Row | KD | Binder
9 | ≤ 100 nM | B7
10 | ≤ 100 nM | B8
11 | ≤ 100 nM | B9
12 | ≤ 100 nM | B10
13 | ≤ 100 nM | B11
14 | ≤ 100 nM | B12
15 | ≤ 100 nM | B13
16 | ≤ 100 nM | B14
17 | ≤ 100 nM | B15
18 | ≤ 100 nM | B16
19 | ≤ 100 nM | B17
20 | ≤ 100 nM | B18
21 | ≤ 100 nM | B19

Target: T1, Fzd1 cysteine rich domain (CRD), …
Test: BLI; **=Kd 100-2000 nM
Procedure: as §1, §2

Row | Kd | Binder
22 | 100 to 2000 nM | B20
23 | 100 to 2000 nM | B21
24 | 100 to 2000 nM | B22
25 | 100 to 2000 nM | B23
26 | 100 to 2000 nM | B24
27 | 100 to 2000 nM | B25

Target: T2, Fzd2 cysteine rich domain (CRD), …
Test: BLI; **=Kd 100-2000 nM
Procedure: as §1, §2

Row | Kd | Binder
28 | 100 to 2000 nM | B23
29 | 100 to 2000 nM | B26
30 | 100 to 2000 nM | B27

Target: Fzd7 cysteine rich domain (CRD), C-terminally biotinylated (human, UniProt O75084 36-165)
Test: BLI; **=Kd 100-2000 nM
Procedure: as §1, §2

Row | Kd | Binder
31 | 100 to 2000 nM | B23

Source: US12006368 (SURROZEN OPERATING, dated 2024)
